Data taken from the supplement of paper PMC9732359.
± gives the uncertainty stated by the source.

Assay: protein stability index of a GFP-peptide fusion (yeast GPS) (PSI 1-4); higher = more stable; sorted into four equal gates, so the index is relative within each strain
Summary of the method: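 The protein stability index of a peptide was calculated by multiplying its read frequency in each gate by that gate's number and adding the products. The peptides were tiled 17-residue stretches of yeast proteins, fused downstream of GFP on a Cherry-expressing plasmid and carried in yeast as a pooled library. Mid-log cultures in leucine-free medium were sorted into four equal gates by GFP/Cherry ratio, and each gate's plasmids were PCR-amplified and Illumina-sequenced.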

Which protein stability index (doa10∆) does the source give for TRKILEILNECHDELKA [MED4] here?
Its protein stability index is 2.04 ± 0.071.

And the protein stability index (pdr5∆)?
The protein stability index was 2.5 ± 0.13.

What about the protein stability index (san1∆) of the same sequence?
Its protein stability index is 2.44 ± 0.085.

What about the protein stability index (ubr1∆) of the same sequence?
The protein stability index was 2.71 ± 0.097.

For ILNLYSSAHLIRINDEP [YML103C/NUP188], which protein stability index (doa10∆) is on record?
Its protein stability index is 1.99 ± 0.096.

And the protein stability index (pdr5∆)?
Its protein stability index is 2.18 ± 0.18.

And the protein stability index (san1∆)?
Its protein stability index is 1.8 ± 0.26.

And the protein stability index (ubr1∆)?
Its protein stability index is 1.77 ± 0.092.

Which results are given for SKMYNTDKKAFLGALKY [PRP8]?
protein stability index (doa10∆): 2.52 ± 0.092; protein stability index (pdr5∆): 2.27 ± 0.071; protein stability index (san1∆): 2.47 ± 0.1; protein stability index (ubr1∆): 2.63 ± 0.11

What does the source list for VVVKNWGAETDELSMIM [RPS12]?
protein stability index (doa10∆): 3.35 ± 0.14; protein stability index (pdr5∆): 3.4 ± 0.14; protein stability index (san1∆): 3.23 ± 0.087; protein stability index (ubr1∆): 3.15 ± 0.14

Which protein stability index (doa10∆) does the source give for LNDTTEKSKALESEIAS [SMC2] here?
The protein stability index was 3.53 ± 0.19.

And the protein stability index (pdr5∆)?
The protein stability index was 3.34 ± 0.14.

And the protein stability index (san1∆)?
Its protein stability index is 3.43 ± 0.086.

And the protein stability index (ubr1∆)?
Its protein stability index is 3.18 ± 0.086.

For TYLLKNDLVKARDLLDD [RPN9], which protein stability index (doa10∆) is on record?
Its protein stability index is 2.7 ± 0.11.

What about the protein stability index (pdr5∆) of the same sequence?
The protein stability index was 2.78 ± 0.11.

And the protein stability index (ubr1∆)?
Its protein stability index is 2.52 ± 0.18.

With AVSKDPLLTKRKDLRDK [DIS3] as the sequence, how does the protein stability index (doa10∆) read?
The protein stability index was 2.97 ± 0.14.

What about the protein stability index (pdr5∆) of the same sequence?
Its protein stability index is 3.41 ± 0.13.

And the protein stability index (san1∆)?
Its protein stability index is 2.78 ± 0.22.

What about the protein stability index (ubr1∆) of the same sequence?
The protein stability index was 3.25 ± 0.14.

Which protein stability index (doa10∆) does the source give for DSLASELTLAEQQVKEA [SMC4] here?
Its protein stability index is 3.24 ± 0.21.

And the protein stability index (pdr5∆)?
Its protein stability index is 3.53 ± 0.11.

What about the protein stability index (san1∆) of the same sequence?
Its protein stability index is 3.23 ± 0.15.

And the protein stability index (ubr1∆)?
The protein stability index was 3.39 ± 0.23.

Which protein stability index (doa10∆) does the source give for HDIAYSKDGLPNKVKTE [RRP6] here?
Its protein stability index is 2.74 ± 0.14.

What about the protein stability index (pdr5∆) of the same sequence?
The protein stability index was 2.51 ± 0.23.

And the protein stability index (san1∆)?
Its protein stability index is 2.85 ± 0.18.

And the protein stability index (ubr1∆)?
Its protein stability index is 3.2 ± 0.29.

Which protein stability index (doa10∆) does the source give for AVKKLYAIIINYTKDNE [YCS4] here?
Its protein stability index is 1.82 ± 0.057.

What about the protein stability index (pdr5∆) of the same sequence?
Its protein stability index is 2.05 ± 0.068.

What about the protein stability index (san1∆) of the same sequence?
The protein stability index was 1.93 ± 0.1.

And the protein stability index (ubr1∆)?
The protein stability index was 1.91 ± 0.029.

For RLGEMERDCVIAYGASQ [RET1], which protein stability index (doa10∆) is on record?
The protein stability index was 3.24 ± 0.095.

What about the protein stability index (pdr5∆) of the same sequence?
The protein stability index was 3.28 ± 0.086.

What about the protein stability index (san1∆) of the same sequence?
The protein stability index was 2.55 ± 0.13.

What about the protein stability index (ubr1∆) of the same sequence?
The protein stability index was 3.22 ± 0.062.

Which protein stability index (doa10∆) does the source give for TAVKQGVTSLGIKATNG [PRE8] here?
Its protein stability index is 2.41 ± 0.065.

What about the protein stability index (pdr5∆) of the same sequence?
The protein stability index was 2.06 ± 0.055.

And the protein stability index (san1∆)?
The protein stability index was 1.87 ± 0.072.

What about the protein stability index (ubr1∆) of the same sequence?
The protein stability index was 1.71 ± 0.083.

For YLYCLDNNITEMLEENF [YCG1], which protein stability index (doa10∆) is on record?
The protein stability index was 2.3 ± 0.05.

What about the protein stability index (pdr5∆) of the same sequence?
The protein stability index was 2.32 ± 0.046.

What about the protein stability index (san1∆) of the same sequence?
The protein stability index was 2.63 ± 0.05.

What about the protein stability index (ubr1∆) of the same sequence?
The protein stability index was 2.73 ± 0.039.

Which protein stability index (doa10∆) does the source give for GQLISLLFEDLFKKFNN [RET1] here?
Its protein stability index is 3.1 ± 0.17.

What about the protein stability index (pdr5∆) of the same sequence?
Its protein stability index is 3.22 ± 0.23.

What about the protein stability index (san1∆) of the same sequence?
The protein stability index was 3.34 ± 0.15.

Which results are given for ARLAILKERAKNISSQL [YGR119C/NUP57]?
protein stability index (doa10∆): 2.24 ± 0.079; protein stability index (pdr5∆): 2.77 ± 0.069; protein stability index (san1∆): 2.51 ± 0.072; protein stability index (ubr1∆): 2.51 ± 0.052

Which results are given for SDLGTVVFDSNEAPPKT [YMR153W/NUP53]?
protein stability index (doa10∆): 3.17 ± 0.057; protein stability index (pdr5∆): 3.13 ± 0.051; protein stability index (san1∆): 2.6 ± 0.076; protein stability index (ubr1∆): 2.58 ± 0.069

Which results are given for GHDADDGYQLFHAEPSG [PUP2]?
protein stability index (doa10∆): 3.37 ± 0.19; protein stability index (pdr5∆): 2.97 ± 0.18; protein stability index (san1∆): 3.42 ± 0.079; protein stability index (ubr1∆): 3.1 ± 0.14

For GLAVGLALINYGRQELA [RPN2], which protein stability index (doa10∆) is on record?
The protein stability index was 1.3 ± 0.11.

What about the protein stability index (pdr5∆) of the same sequence?
The protein stability index was 1.21 ± 0.076.

What about the protein stability index (san1∆) of the same sequence?
Its protein stability index is 1.58 ± 0.24.

What about the protein stability index (ubr1∆) of the same sequence?
Its protein stability index is 1.09 ± 0.053.

Which protein stability index (doa10∆) does the source give for ETESSVSNNEANTPSIP [SWI3] here?
The protein stability index was 3.09 ± 0.053.

And the protein stability index (pdr5∆)?
Its protein stability index is 3.12 ± 0.069.

What about the protein stability index (san1∆) of the same sequence?
Its protein stability index is 3.11 ± 0.054.

And the protein stability index (ubr1∆)?
The protein stability index was 3.15 ± 0.054.

Which protein stability index (doa10∆) does the source give for GVRSNHLRSNILKDLIY [SMC1] here?
Its protein stability index is 2.47 ± 0.28.

What about the protein stability index (pdr5∆) of the same sequence?
The protein stability index was 2.35 ± 0.16.

And the protein stability index (ubr1∆)?
The protein stability index was 2.82 ± 0.13.

For YKKPTGGIVTVRSEMGE [FAS1], which protein stability index (doa10∆) is on record?
Its protein stability index is 2.66 ± 0.13.

And the protein stability index (pdr5∆)?
The protein stability index was 1.69 ± 0.069.

What about the protein stability index (san1∆) of the same sequence?
Its protein stability index is 1.32 ± 0.18.

And the protein stability index (ubr1∆)?
Its protein stability index is 1.39 ± 0.082.

Which protein stability index (doa10∆) does the source give for TPVSHNDDLYGKVTDVR [RPL1A] here?
Its protein stability index is 3.04 ± 0.091.

And the protein stability index (pdr5∆)?
Its protein stability index is 3.04 ± 0.096.

And the protein stability index (san1∆)?
The protein stability index was 2.81 ± 0.067.

What about the protein stability index (ubr1∆) of the same sequence?
The protein stability index was 3.12 ± 0.084.

With TFTIKEFVSYYYAHSIP [SNU114] as the sequence, how does the protein stability index (doa10∆) read?
Its protein stability index is 1.88 ± 0.039.

What about the protein stability index (pdr5∆) of the same sequence?
The protein stability index was 1.77 ± 0.045.

What about the protein stability index (san1∆) of the same sequence?
Its protein stability index is 2.25 ± 0.055.

What about the protein stability index (ubr1∆) of the same sequence?
The protein stability index was 1.88 ± 0.052.

Which protein stability index (doa10∆) does the source give for NYTKDNEYYPMCEQALS [YCS4] here?
The protein stability index was 2.25 ± 0.066.

What about the protein stability index (pdr5∆) of the same sequence?
The protein stability index was 2.61 ± 0.087.

And the protein stability index (san1∆)?
The protein stability index was 2.6 ± 0.071.

And the protein stability index (ubr1∆)?
Its protein stability index is 2.47 ± 0.052.

What does the source list for GINKIPPKPRKVLQLLR [RPL7A]?
protein stability index (doa10∆): 3.06 ± 0.087; protein stability index (pdr5∆): 3.15 ± 0.11; protein stability index (san1∆): 3.22 ± 0.061; protein stability index (ubr1∆): 3.15 ± 0.069

What does the source list for LLENFANFKTSKKYQLA [RRP6]?
protein stability index (doa10∆): 2.09 ± 0.25; protein stability index (pdr5∆): 2.57 ± 0.2; protein stability index (san1∆): 2.27 ± 0.21; protein stability index (ubr1∆): 2.33 ± 0.17
